Source: patent publication US20130122013A1 (Eli Lilly, published 2013)
Each block holds one molecule with its values, some of them ahead of it.

What was measured:
[1] = target: T1, human ferroportin 1 (human, UniProt Q9NP59 1-571); experiment: cell-based or functional assay
T1 sequence: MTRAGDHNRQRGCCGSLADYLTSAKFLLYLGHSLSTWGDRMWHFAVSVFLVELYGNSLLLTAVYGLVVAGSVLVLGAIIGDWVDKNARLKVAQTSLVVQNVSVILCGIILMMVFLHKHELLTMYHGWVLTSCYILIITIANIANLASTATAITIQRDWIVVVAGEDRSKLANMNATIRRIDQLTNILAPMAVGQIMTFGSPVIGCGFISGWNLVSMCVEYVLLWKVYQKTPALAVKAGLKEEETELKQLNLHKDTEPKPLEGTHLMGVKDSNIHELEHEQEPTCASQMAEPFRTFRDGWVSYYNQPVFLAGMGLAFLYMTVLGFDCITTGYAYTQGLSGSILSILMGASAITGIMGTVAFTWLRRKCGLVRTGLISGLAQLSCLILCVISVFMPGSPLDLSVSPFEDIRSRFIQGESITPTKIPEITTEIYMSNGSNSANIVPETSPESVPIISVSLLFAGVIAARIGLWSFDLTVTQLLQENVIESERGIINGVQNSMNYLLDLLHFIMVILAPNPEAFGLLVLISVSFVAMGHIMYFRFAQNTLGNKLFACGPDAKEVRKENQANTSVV

[2] = target: T1, human ferroportin 1; experiment: inhibition of binding of 30 nM biotinylated hepcidin to FPN/293 cells, ELISA of lysate; antibody at 125 nM; mean
Protocol: (§1) Next, 65 μL of lysing buffer (0.5% Triton X-100, 10 mM EDTA) are added to all the wells and the plates are shaken for 10 minutes. Next, 50 μL of the solution in each well is transferred to individual wells of a streptavidin coated Greiner microtiter plate (60 μL of 2 μg/mL streptavidin (Sigma, St. Louis, Mo.; catalog no. S4762) in PBS, incubated at 4° C. overnight, washed 2 times (0.1% Tween 20, TBS), blocked with casein/PBS), and then incubated for one hour at room temperature. […] After incubating one hour at room temperature, the plate is washed 4× and 50 μL of OPD substrate (Sigma; catalog no. P6912) is added. The reaction is stopped with 100 μL 1 N HCl after 4 minutes. Absorbance at 490 nm (A₄₉₀) is read using an appropriate ELISA plate reader.

[3] = target: T1, human ferroportin 1; experiment: inhibition of binding of 30 nM biotinylated hepcidin to FPN/293 cells, ELISA of lysate; antibody at 500 nM; mean
Protocol: as §1

[4] = target: T2, human FPN1 C-terminally fused with GFP (human, UniProt Q9NP59 1-571, GFP reporter fused to the C-terminus ("FPN1 is C-terminally fused with GFP"). It is left out because the patent gives no letters for it.); experiment: cell-based or functional assay
T2 sequence: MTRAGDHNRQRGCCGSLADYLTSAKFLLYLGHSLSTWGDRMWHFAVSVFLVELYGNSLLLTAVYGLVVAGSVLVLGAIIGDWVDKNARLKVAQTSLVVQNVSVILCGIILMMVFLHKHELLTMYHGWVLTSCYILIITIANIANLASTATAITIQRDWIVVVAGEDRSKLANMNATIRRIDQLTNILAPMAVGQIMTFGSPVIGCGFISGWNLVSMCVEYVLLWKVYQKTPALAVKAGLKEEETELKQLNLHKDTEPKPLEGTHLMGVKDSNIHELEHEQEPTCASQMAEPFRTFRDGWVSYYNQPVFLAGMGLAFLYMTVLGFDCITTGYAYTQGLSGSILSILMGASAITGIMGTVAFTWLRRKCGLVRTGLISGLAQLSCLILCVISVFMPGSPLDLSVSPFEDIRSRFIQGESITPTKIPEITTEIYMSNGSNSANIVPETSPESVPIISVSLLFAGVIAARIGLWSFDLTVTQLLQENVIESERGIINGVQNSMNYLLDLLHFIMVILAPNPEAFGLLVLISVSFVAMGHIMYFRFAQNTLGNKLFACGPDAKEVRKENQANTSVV

[5] = target: T1, human ferroportin 1; experiment: inhibition of binding of 30 nM biotinylated hepcidin to FPN/293 cells, ELISA of lysate; antibody at 2000 nM; mean
Protocol: as §1

[6] = target: T1, human ferroportin 1; experiment: inhibition of binding of 30 nM biotinylated hepcidin to FPN/293 cells, ELISA of lysate; antibody at 7.8 nM; mean
Protocol: as §1

[7] = target: T1, human ferroportin 1; experiment: inhibition of binding of 30 nM biotinylated hepcidin to FPN/293 cells, ELISA of lysate; antibody at 31.25 nM; mean
Protocol: as §1

[8] = target: T2, human FPN1 C-terminally fused with GFP; experiment: SPR, Biacore T100, 37 C, 1:1 model; FPN1-GFP captured from cell lysate on goat anti-GFP antibody, Fab injected; n = 3
Protocol: (§2) The affinities of FPN1 binding Fabs and Mabs may be determined on Biacore T100 and using 1:1 binding model in the Biacore T100 evaluation software (BIAcore® AB, Upsala, Sweden). […] FPN1 is C-terminally fused with GFP. Expression of FPN1-GFP is induced by 1-10 ng/mL doxycycline for 1-24 hours. Induced cells are harvested by scraping off from flasks and then washed with 1×PBS. Cell pellets can be stored at −80° C. before use. About five million induced cells are resuspended in 10 mM phosphate buffer with 0.2% Tween-20 and protease inhibitors, e.g., Complete™ Protease Inhibitor Cocktail Tablet (Roche Diagnostics Corp., Indianapolis, Ind.). Three cycles of freeze/thaw/sonication are used to lyse the cells. The lysate is diluted two-fold with Biacore running buffer and centrifuged to remove debris.
(§3) On Biacore T100, rabbit anti-GFP antibody or goat anti-GFP antibody is immobilized onto flow cell 1 to 4 of a CMS chip at 5000-15000 Rus. FPN1-GFP is captured onto flow cell 2, 3, or 4 from the lysate of induced cells. Flow cell 1 is used as reference. Then all flow cells are injected with different concentrations of antibodies to evaluate the binding and kinetics.

[9] = target: T2, human FPN1 C-terminally fused with GFP; experiment: SPR, Biacore T100, 37 C, 1:1 model; FPN1-GFP captured from cell lysate on rabbit anti-GFP antibody, Fab injected
Protocol: as §2, §3

[10] = target: T2, human FPN1 C-terminally fused with GFP; experiment: SPR, Biacore T100, 37 C, 1:1 model; FPN1-GFP captured from cell lysate on goat anti-GFP antibody, Fab injected; n = 4
Protocol: as §2, §3

[11] = target: T2, human FPN1 C-terminally fused with GFP; experiment: SPR, Biacore T100, 25 C, 1:1 model; FPN1-GFP captured from cell lysate on rabbit anti-GFP antibody, Mab injected
Protocol: as §2, §3

[12] = target: T2, human FPN1 C-terminally fused with GFP; experiment: cell-based or functional assay; remark: listed apart in the source

% Inhibition [2]: 76.5%
% Inhibition [3]: 99.8%
EC50 of inhibition of mature hepcidin induced increase in cellular ferritin, Caco-2 cells [1]: 193 nM
Percentage inhibition of mature hepcidin induced increase in cellular ferritin, Caco-2 cells, Mab at 2.22E-7 M [1]: 53.8%
Percentage inhibition of mature hepcidin induced increase in cellular ferritin, Caco-2 cells, Mab at 2.47E-8 M [1]: 30.1%
Percentage inhibition of mature hepcidin induced increase in cellular ferritin, Caco-2 cells, Mab at 2.7E-9 M [1]: 39.6%
Percentage inhibition of mature hepcidin induced increase in cellular ferritin, Caco-2 cells, Mab at 3.0E-10 M [1]: 24.1%
Percentage inhibition of mature hepcidin induced increase in cellular ferritin, Caco-2 cells, Mab at 6.67E-7 M [1]: 61.7%
Percentage inhibition of mature hepcidin induced increase in cellular ferritin, Caco-2 cells, Mab at 7.4E-8 M [1]: 40.6%
Percentage inhibition of mature hepcidin induced increase in cellular ferritin, Caco-2 cells, Mab at 8.0E-9 M [1]: 39.5%
Percentage inhibition of mature hepcidin induced increase in cellular ferritin, Caco-2 cells, Mab at 9.0E-10 M [1]: 24.4%
Absolute IC50 of inhibition of hepcidin-25-induced internalization and degradation of FPN1-GFP [4]: 6.2 nM
Relative IC50 of inhibition of hepcidin-25-induced internalization and degradation of FPN1-GFP [4]: 4.8 nM
Top % Inhibition of hepcidin-25-induced internalization and degradation of FPN1-GFP [4]: 81.6%
% Inhibition [5]: 85.1%
% Inhibition [6]: -0.1%
% Inhibition [7]: 27.5%
B1: Mab L2.2-4 (antibody, human IgG4 S228P, kappa, F234A L235A, V domains shown)
VH: QVQLVQSGAEVKKPGSSVKVSCKASGYAFTSFLIEWVRQAPGQGLEWMGTSNPRTGGRKYKEKFRGRVTITADKSTSTAYMELSSLRSEDTAVYYCAREFFDYWGQGTTVTVSS
VL: DIQMTQSPSSLSASVGDRVTITCRASKSISKYTAWYQQKPGKAPKLLIYAGSKLRSGVPSRFSGSGSGTDFTLTISSLQPEDFATYYCQQHNEYPYTFGGGTKVEIKR

Kd [8]: 1.96 nM
koff [8]: 0.00079 s⁻¹
kon [8]: 431000 M⁻¹ s⁻¹
B4: Fab L2.2-4 (Fab, V domains shown)
VH: QVQLVQSGAEVKKPGSSVKVSCKASGYAFTSFLIEWVRQAPGQGLEWMGTSNPRTGGRKYKEKFRGRVTITADKSTSTAYMELSSLRSEDTAVYYCAREFFDYWGQGTTVTVSS
VL: DIQMTQSPSSLSASVGDRVTITCRASKSISKYTAWYQQKPGKAPKLLIYAGSKLRSGVPSRFSGSGSGTDFTLTISSLQPEDFATYYCQQHNEYPYTFGGGTKVEIK
notes: also called human L2.2-4

Kd [11]: 0.728 nM
koff [11]: 9.81e-05 s⁻¹
kon [11]: 135000 M⁻¹ s⁻¹
Percent (%) Inhibition of Mature Human Hepcidin-induced Internalization and Degradation, Mab at 7.4 nM [12]: 24.3%
Percent (%) Inhibition of Mature Human Hepcidin-induced Internalization and Degradation, Mab at 22 nM [12]: 49.9%
Percent (%) Inhibition of Mature Human Hepcidin-induced Internalization and Degradation, Mab at 67 nM [12]: 61.8%
Percent (%) Inhibition of Mature Human Hepcidin-induced Internalization and Degradation, Mab at 200 nM [12]: 62.4%
Percent (%) Inhibition of Mature Human Hepcidin-induced Internalization and Degradation, Mab at 600 nM [12]: 67.9%
Absolute IC50 of inhibition of hepcidin-25-induced internalization and degradation of FPN1-GFP [4]: 18.8 nM
Relative IC50 of inhibition of hepcidin-25-induced internalization and degradation of FPN1-GFP [4]: 9.2 nM
Top % Inhibition of hepcidin-25-induced internalization and degradation of FPN1-GFP [4]: 69%
B6: Mab 1G9 (antibody, mouse IgG1, kappa, V domains shown)
VH: QVQLKQSGAELVRPGTSVKVSCKASGYAFTSFLIEWLKQRPGQGLEWIGTINPRTGGTKYNEKFRGKATLTADKSSSTAYMQLNSLTSDDSAVYFCVREFFDYWGQGTSLTVSS
VL: ETTVTQSPSYLAASPGETITINCRASKSISKYLAWFQEKPGKTNKLLIYAGSKLHSGIPSRFSGSGSGTDFTLTISSLEPEDFAMYYCFQHNEYPYTFGGGTKLELKR
notes: also called mouse 1G9; murine Mab 1G9

Second part, the molecule before the results:

Molecule: Control human IgG4 (antibody)
Percentage inhibition of mature hepcidin induced increase in cellular ferritin, Caco-2 cells, antibody at 2.22E-7 M [1]: 24.2%
Percentage inhibition of mature hepcidin induced increase in cellular ferritin, Caco-2 cells, antibody at 2.47E-8 M [1]: 22.1%
Percentage inhibition of mature hepcidin induced increase in cellular ferritin, Caco-2 cells, antibody at 2.7E-9 M [1]: 22.4%
Percentage inhibition of mature hepcidin induced increase in cellular ferritin, Caco-2 cells, antibody at 3.0E-10 M [1]: 15.5%
Percentage inhibition of mature hepcidin induced increase in cellular ferritin, Caco-2 cells, antibody at 6.67E-7 M [1]: 18.7%
Percentage inhibition of mature hepcidin induced increase in cellular ferritin, Caco-2 cells, antibody at 7.4E-8 M [1]: 21.1%
Percentage inhibition of mature hepcidin induced increase in cellular ferritin, Caco-2 cells, antibody at 8.0E-9 M [1]: 16.1%
Percentage inhibition of mature hepcidin induced increase in cellular ferritin, Caco-2 cells, antibody at 9.0E-10 M [1]: 17.5%

B2: Fab 3D8 (Fab, V domains shown)
VH: QVQLVQSGAEVKKPGSSVKVSCKASGYAFTSFLIEWVRQAPGQGLEWMGTSNPRTGGTKYKEKFRGRVTITADKSTSTAYMELSSLRSEDTAVYYCAREFFDYWGQGTTVTVSS
VL: DIQMTQSPSSLSASVGDRVTITCRASKSISKYTAWYQQKPGKAPKLLIYAGSKLHSGVPSRFSGSGSGTDFTLTISSLQPEDFATYYCQQHNEYPYTFGGGTKVEIK
notes: Humanized form of mouse Fab 1G9 (VH1-69 and O2 frameworks); also called human 3D8
Kd [8]: 6.29 nM
koff [8]: 0.00206 s⁻¹
kon [8]: 328000 M⁻¹ s⁻¹
Kd [9]: 10.4 nM
koff [9]: 0.002 s⁻¹
kon [9]: 192000 M⁻¹ s⁻¹

B3: Fab 4A10-3 (Fab, V domains shown)
VH: QVQLVQSGAEVKKPGSSVKVSCKASGYAFTSFLIEWVRQAPGQGLEWMGTSNPRTGGRKYKEKFRGRVTITADKSTSTAYMELSSLRSEDTAVYYCAREFFDYWGQGTTVTVSS
VL: DIQMTQSPSSLSASVGDRVTITCRASKSISKYTAWYQQKPGKAPKLLIYAGSKLHWGVPSRFSGSGSGTDFTLTISSLQPEDFATYYCQQHNEYPYTFGGGTKVEIK
notes: also called human 4A10-3
Kd [10]: 1.76 nM
koff [10]: 0.00148 s⁻¹
kon [10]: 844000 M⁻¹ s⁻¹

B5: Fab Combi11 (Fab, V domains shown)
VH: QVQLVQSGAEVKKPGSSVKVSCKASGYAFTSFLIEWVRQAPGQGLEWMGTSNPRTGRTKYKSKFRGRVTITADKSTSTAYMELSSLRSEDTAVYYCAREFFDYWGQGTTVTVSS
VL: DIQMTQSPSSLSASVGDRVTITCRASKSISKYTAWYQQKPGKAPKLLIYAGSKRHWGVPSRFSGSGSGTDFTLTISSLQPEDFATYYCQQHNEYPYTFGGGTKVEIK
notes: also called human Combi11
Kd [8]: 2.4 nM
koff [8]: 0.00637 s⁻¹
kon [8]: 2.31e+06 M⁻¹ s⁻¹

B7: Fab 34A9 (Fab, V domains shown)
VH: QVQLKQSGAELVRPGTSVKVSCKASGYAFTNFLIEWLKQRPGQGLEWIGTINPETGGTKYNEKFRGKATLTADKSSSTAYMQLNSLTSDDSAVYFCVREFFDYWGQGTSLTVSS
VL: ETTVTQSPSYLAASPGETITINCRASKSISKYLAWFQEKPGKTNKLLIYAGSTLHSGIPSRFSGSGSGTDFTLTISSLEPEDFAMYYCQQHNEYPYTFGGGTKLELK
notes: Mouse Fab; also called mouse Fab 34A9
Kd [9]: 41.5 nM
koff [9]: 0.00262 s⁻¹
kon [9]: 63200 M⁻¹ s⁻¹
